{"source": "patent US8067155B2", "about": "“Receptor tyrosine kinase assays” (DiscoveRx Corporation, priority 2008, dated 2011)", "molecules": {"B1": {"name": "BDNF: BDNF (Peprotech, Cat 450-02), a known ligand for TrkB (protein, UniProt P23560 19-247, looked up)", "Neurotrophic factor BDNF …": "APMKEANIRGQGGLAYPGVRTHGTLESVNGPKAGSRGLTSLADTFEHVIEELLDEDQKVRPNEENNKDADLYTSRVMLSSQVPLEPPLLFLLEEYKNYLDAANMSMRVRRHSDPARRGELSVCDSISEWVTAADKKTAVDMSGGTVTVLEKVPVSKGQLKQYFYETKCNPMGYTKEGCRGIDKRHWNSQCRTTQSYVRALTMDSKKRIGWRFIRIDTSCVCTLTIKRGR"}, "B2": {"name": "G-CSF (Peprotech 300-23) (ligand, UniProt P09919-2 31-204, looked up)", "chain": "TPLGPASSLPQSFLLKCLEQVRKIQGDGAALQEKLCATYKLCHPEELVLLGHSLGIPWAPLSSCPSQALQLAGCLSQLHSGLFLYQGLLQALEGISPELGPTLDTLQLDVADFATTIWQQMEELGMAPALQPTQGAMPAFASAFQRRAGGVLVASHLQSFLEVSYRVLRHLAQP"}}, "key": {"[1]": {"target": "TrkB fused to a low affinity small fragment of β-galactosidase (TrkB-PK) (UniProt Q16620)", "assay": "cell-based or functional assay"}, "[2]": {"target": "T1, insulin receptor (INSR) (Homo sapiens, UniProt P06213)", "T1 construct": "host or cells: U2OS", "assay": "PathHunter INSR-PK / SH2-containing protein-EA assay in U2OS cells, agonist mode", "type": "cell-based", "conditions": "U2OS INSR-PK cells, 10,000 cells/well, 3 hours at room temperature"}, "[3]": {"target": "TrkC fused to a low affinity small fragment of β-galactosidase (TrkC-PK) (UniProt Q16288)", "assay": "cell-based or functional assay"}, "[4]": {"target": "T2, TrkC (Homo sapiens, UniProt Q16288)", "T2 construct": "host or cells: U2OS", "assay": "PathHunter TrkC-PK / SH2-containing protein-EA assay in U2OS cells, agonist mode", "type": "cell-based", "conditions": "3 hours at room temperature", "protocol": "FIG. 8 is a graph of the dose response in U2OS cells of TrkC fused to a low affinity small fragment of β-galactosidase (TrkC-PK). Cells were plated in a 384-well plate at 10,000 cells/well, stimulated with NT3 (Peprotech, Cat #/450-03), a known ligand for TrkC, for 3 hours at room temperature according to the assay procedure provided. Following stimulation, detection reagents were added and signal was detected after 1 hour using the PathHunter® Detection Kit (93-0001).\n(§1) Generally, the expression constructs for the fusion proteins includes at least (in order of 5′ to 3′) a promoter, followed by the receptor or SH2 domain, followed by a linker, followed by either the EA or PK. […] SH2-EA complex formation with the RTK was detected with 50% (v/v) of PathHunter® Detection Reagent (Dx 93-0001, PathHunter reagents are available from DiscoveRx, Corp., Fremont, Calif.) (Lysis buffer active ingredient 1% CHAPS, Emerald II™ and Galacton Star™ are from Applied Biosystems).\n(§2) 10K cells/well TrkC-PK SH2-containing protein-EA double stable cells were plated in a 384-well plate, stimulated with NT3 (Peprotech, Cat #/450-03), a known ligand for TrkC for 3 hours at room temperature according to the assay procedure provided. Following stimulation, detection reagents were added and signal was detected after 1 hour using the PathHunter® Detection Kit (93-0001)."}, "[5]": {"target": "T3, TrkB (Homo sapiens, UniProt Q16620)", "T3 construct": "host or cells: U2OS", "assay": "PathHunter TrkB-PK / SH2-containing protein-EA assay in U2OS cells, agonist mode", "type": "cell-based", "conditions": "3 hours at room temperature", "protocol": "FIG. 7 is a graph of the dose response in U2OS cells of TrkB fused to a low affinity small fragment of β-galactosidase (TrkB-PK). Cells were plated in a 384-well plate at 10,000 cells/well stimulated with BDNF (Peprotech, Cat #/450-02), a known ligand for TrkB, for 3 hours at room temperature according to the assay procedure provided. Following stimulation, detection reagents were added and signal was detected after 1 hour using the PathHunter® Detection Kit (93-0001).\nas §1\nas §2, with “cells/well TrkB-PK” for “cells/well TrkC-PK”, “stable cell” for “stable cells”, “with BDNF” for “with NT3”, “Cat #/450-02),” for “Cat #/450-03),”, “for TrkB” for “for TrkC”"}, "[6]": {"target": "G-CSFR (granulocyte-colony stimulating factor receptor) fused to a low affinity small fragment of … (UniProt Q99062 25-836, tyrosine-phosphorylated on activation (by Jak2); sites not stated)", "sequence (Q99062 other isoform, or with tags, fused parts or gaps)": "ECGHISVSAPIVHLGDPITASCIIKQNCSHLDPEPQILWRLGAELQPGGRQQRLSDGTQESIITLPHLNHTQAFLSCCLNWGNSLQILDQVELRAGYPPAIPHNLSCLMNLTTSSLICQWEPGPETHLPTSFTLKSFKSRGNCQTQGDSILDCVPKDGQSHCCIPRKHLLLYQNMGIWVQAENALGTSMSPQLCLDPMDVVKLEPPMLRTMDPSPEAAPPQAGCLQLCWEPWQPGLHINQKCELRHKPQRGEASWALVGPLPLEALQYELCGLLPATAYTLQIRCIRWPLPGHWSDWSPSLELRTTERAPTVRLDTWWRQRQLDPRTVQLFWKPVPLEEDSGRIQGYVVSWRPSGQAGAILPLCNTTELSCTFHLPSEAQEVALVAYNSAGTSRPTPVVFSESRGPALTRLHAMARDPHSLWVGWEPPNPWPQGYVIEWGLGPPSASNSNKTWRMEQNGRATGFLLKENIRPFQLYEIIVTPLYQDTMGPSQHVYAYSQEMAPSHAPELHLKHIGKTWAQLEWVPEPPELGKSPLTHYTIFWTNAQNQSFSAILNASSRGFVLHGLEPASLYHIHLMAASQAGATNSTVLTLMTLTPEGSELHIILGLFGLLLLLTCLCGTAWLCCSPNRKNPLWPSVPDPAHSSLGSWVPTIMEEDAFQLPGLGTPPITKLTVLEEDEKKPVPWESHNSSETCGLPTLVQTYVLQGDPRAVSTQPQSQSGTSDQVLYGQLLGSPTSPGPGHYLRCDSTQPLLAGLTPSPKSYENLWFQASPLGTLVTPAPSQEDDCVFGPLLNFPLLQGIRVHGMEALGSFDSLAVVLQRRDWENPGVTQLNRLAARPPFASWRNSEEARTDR", "assay": "cell-based or functional assay"}}}
{"molecule": "BDNF (Peprotech, Cat #/450-02) (from UniProt P23560 129-247) (ligand)", "values": [{"measurement": "EC50 of the BDNF dose response (PathHunter β-galactosidase complementation of TrkB-PK and SH2-containing protein-EA in U2OS cells)", "setting": "[1]", "value": 4.21, "unit": "ng/mL"}, {"measurement": "assay window of the BDNF dose response (PathHunter β-galactosidase complementation of TrkB-PK and SH2-containing protein-EA in U2OS cells)", "setting": "[1]", "value": 4, "unit": "fold"}]}
{"molecule": "IGF1: IGF1 (Peprotech, Cat AF-100-11), a known ligand for IGF1R", "values": [{"measurement": "EC50", "setting": "[2]", "value": 2.0, "unit": "ng/mL"}]}
{"molecule": "NT3 (Peprotech, Cat #/450-03) (from UniProt P20783 139-257) (ligand)", "values": [{"measurement": "EC50 of the NT3 dose response (PathHunter β-galactosidase complementation of TrkC-PK and SH2-containing protein-EA in U2OS cells)", "setting": "[3]", "value": 7, "unit": "ng/mL"}, {"measurement": "assay window of the NT3 dose response (PathHunter β-galactosidase complementation of TrkC-PK and SH2-containing protein-EA in U2OS cells)", "setting": "[3]", "value": 8.1, "unit": "fold"}]}
{"molecule": "NT3: NT3 (Peprotech, Cat 450-03), a known ligand for TrkC", "values": [{"measurement": "EC50", "setting": "[4]; U2OS TrkC-PK cells, 10,000 cells/well", "value": 7, "unit": "ng/mL"}, {"measurement": "assay window", "setting": "[4]; U2OS TrkC-PK cells", "value": 8.1, "unit": "fold"}]}
{"molecule": "B1", "values": [{"measurement": "EC50", "setting": "[5]; U2OS TrkB-PK cells, 10,000 cells/well", "value": 4.21, "unit": "ng/mL"}, {"measurement": "assay window", "setting": "[5]; U2OS TrkB-PK cells", "value": 4.0, "unit": "fold"}]}
{"molecule": "B2", "values": [{"measurement": "EC50 of the G-CSF dose response (PathHunter β-galactosidase complementation of CSF3R-PK and SHC1-EA in U2OS cells, Jak2 construct)", "setting": "[6]", "value": 4, "unit": "ng/mL"}, {"measurement": "assay window of the G-CSF dose response (PathHunter β-galactosidase complementation of CSF3R-PK and SHC1-EA in U2OS cells, Jak2 construct)", "setting": "[6]", "value": 7, "unit": "fold"}]}
